Here are results for four molecules from patent US20160024214A1 (Novo Nordisk, published 2016).

Where “and” joins values, the source holds several entries; their conditions need not be identical. Identical values can stand only once. Like-named read-outs stand apart in the source and are kept apart here.

The target in assay [1] is T1, human NKG2D (hNKG2D) on the cell surface (human, UniProt P26718 1-216).
T1 construct: BaF/3 cells co-transfected with full-length NKG2D and DAP10, or native receptor on human NK, CD8+ and gamma-delta T cells of PBMC / whole blood; also called cell-surface NKG2D; NKG2D/DAP10-expressing BaF/3 cells
T1 chain: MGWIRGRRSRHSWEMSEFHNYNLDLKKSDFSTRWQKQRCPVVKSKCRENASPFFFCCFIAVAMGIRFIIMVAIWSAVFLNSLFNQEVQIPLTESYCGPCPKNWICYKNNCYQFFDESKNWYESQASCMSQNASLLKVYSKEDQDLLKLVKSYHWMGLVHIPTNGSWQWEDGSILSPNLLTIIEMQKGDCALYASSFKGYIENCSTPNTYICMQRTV
The assay can be described thus: flow cytometry, NKG2D/DAP10 BaF/3 cells; antibody pre-incubated, then 1 µg hFc-MICA as competitor. On the technique in general: Flow cytometry measures light scatter and fluorescence of single cells or particles in a stream.

The target of assay [2] is T1, human NKG2D (hNKG2D) on the cell surface. The assay is described as above.
Assay [3] shares this target. The assay can be described thus: flow cytometry, NKG2D-expressing cells; ON72 first, then 16F16 as competitor.
Assay [4] addresses recombinant NKG2D-Fc (R&D Systems) (human) (UniProt P26718). Briefly: SPR (Biacore), antibody over immobilised NKG2D-Fc, Langmuir fit. A general note: SPR reads the build-up and loss of mass on a sensor chip optically.
Assay [5] deals with T1, human NKG2D (hNKG2D) on the cell surface. The assay can be described thus: cell-based or functional assay.
For assay [6] the target is unchanged. Briefly: flow cytometry, NKG2D-expressing cells; ON72 first, then 16F16 as competitor (FIG. 9A legend).
For assay [7] the target is unchanged. Briefly: flow cytometry, NKG2D/DAP10 BaF/3 cells, dose-response.
For assay [8] the target is unchanged. Briefly: flow cytometry, NKG2D-expressing cells; pre-incubation with 149810, then ON72 as competitor (post-incubation antibody).
For assay [9] the target is unchanged. Briefly: flow cytometry, NKG2D-expressing cells; 149810 first, then 16F16 as competitor.
In assay [10] the target is T2, soluble hNKG2D fragment (residues 81-216 of SEQ ID NO:2) (human, UniProt P26718 81-216).
T2 construct: Homodimer in the crystal with two hzON72 Fab molecules
T2 sequence: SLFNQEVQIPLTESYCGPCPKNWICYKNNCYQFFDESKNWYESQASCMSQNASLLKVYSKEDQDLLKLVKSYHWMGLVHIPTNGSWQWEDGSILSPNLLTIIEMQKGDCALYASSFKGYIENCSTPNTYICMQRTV
The assay can be described thus: complex purified by gel filtration; X-ray crystal structure 3.15 Å. For orientation: Size exclusion chromatography separates by hydrodynamic size, large species first.

In the case of “ON72 (murine anti-hNKG2D antibody, Beckman Coulter)”, in [1], the IC50 was 0.02 nM and the full blockade of 1 µg MICA-Fc stood at 0.24 nM. In assay [2], this molecule came in with an IC50 of 0.019 µg/mL and a full blockade of 1 µg MICA-Fc of 0.54 µg/mL. The molecule further registered a % of 16F16 binding blocked in assay [3] of 82%. Besides, in assay [4], the dissociation constant (Kd) came out at 0.17 nM, the koff stood at 0.00011 s⁻¹ and the kon is 960000 M⁻¹ s⁻¹. In addition, in assay [5], the % proliferation of PBMC, stimulation CD3 0.1 + CD28 + ON72 (immobilized) came out at 22.9%; the % proliferation of PBMC, stimulation CD3 0.1 + ON72 (immobilized) stood at 7.12%; the % proliferation of PBMC, stimulation CD3 0.3 + CD28 + ON72 (immobilized) was 40.1%; the % proliferation of PBMC, stimulation CD3 0.3 + ON72 (immobilized) came out at 28.4%. In assay [5], this molecule registered an EC50 (µg/ml), inhibition of NK-cell killing of ULPB3-expressing target cells (51Cr release) of 0.065 µg/mL; a down-modulation of cell-surface NKG2D, NKG2D/DAP10 BaF/3 cells, overnight, 1 µg of 55%; an internalization of NKG2D at 1 h, NKG2D+ lymphocytes in whole blood, 0.1 µg/ml of 50 to 75%; an internalization of NKG2D at 24 h, NKG2D+ lymphocytes in whole blood, 0.1 µg/ml of 100%. Moreover, the % of 16F16 binding prevented in assay [6] worked out at 85%. For the same molecule, the EC50 in [7] is 0.062 µg/mL and 0.048 nM.

For “149810 (murine anti-hNKG2D antibody, R&D Systems)”, the Inhibition (%) in [8] stood at 85%. This molecule also had a % blockade of 16F16 binding in assay [9] of 50%. Besides, the EC50 in assay [7] was 0.063 µg/mL and 0.042 nM.

B1: hzON72 Fab (humanized version of ON72 Fab fragment) (Fab, V domains shown)
VH: QVQLVQSGAEVKKPGASVKVSCKASGYTFTNYWMHWVRQAPGQGLEWMGEIDPSDIYTNYAQKFQGRVTMTRDTSTSTVYMELSSLRSEDTAVYYCARGIYDGYYVYGMDYWGQGTTVTVSS
VL: YIQMTQSPSSLSASVGDRVTITCRSSQDISNYLNWYQQKPGKAPKLLIYYTSRLHSGVPSRFSGSGSGTDFTFTISSLQPEDIATYYCQQGKTLPRTFGGGTKVEIKR
Take B1: the binding result in assay [10] is on record as “binds”.

B2: 16F16 (recombinantly expressed, IgG4 isotype) (antibody, V domains shown)
VH: EVQLVESGGGLVKPGGSLRLSCAASGFTFSSYSMNWVRQAPGKGLEWVSSITSSSSYIYYADSVKGRFTISRDNAKNSLYLQMNSLRAEDTAVYYCARDRRYFDWFPLDYRGQGTLVTVSS
VL: DIQMTQSPSSLSASVGDRVTITCRASQGISSWLAWYQQKPEKAPKSLIYAASSLQSGVPSRFSGSGSGTDFTLTISSLQPEDFATYYCQQYNGYPYTFGQGTKLEIKR
notes: Fully human anti-hNKG2D antibody from KM mouse hybridoma; variable regions cloned into human IgG4 framework, expressed in HEK293 cells, protein A purified; also called 16F16 IgG4; 16F16 (IgG4)
In assay [7], B2 had an EC50 of 0.034 nM.

By IC50 is commonly meant the concentration that gives 50% inhibition. Lower therefore signals higher potency. The Kd is the concentration at which binding is half-saturated. By koff is commonly meant the rate constant with which the complex falls apart. Broadly, the kon is the second-order rate constant of association. As usually defined, the EC50 is the midpoint of the concentration-response curve. Lower therefore signals higher potency in that assay.
